The record followed here is publication PMC10397247.

One assay deals with T1, O6-bN.
T1 chain: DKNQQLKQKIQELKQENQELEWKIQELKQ
Nature of the assay: two-hybrid library CCNG1.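 Note: natural log of median RNA to DNA barcode read ratio; higher means stronger binding.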

The target of another assay is T2, O7-bN.
T2 chain: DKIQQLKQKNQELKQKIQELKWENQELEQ
The assay can be described thus: two-hybrid library CCNG1.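 Note: natural log of median RNA to DNA barcode read ratio; higher means stronger binding.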

Another assay deals with T3, O3-bN.
T3 chain: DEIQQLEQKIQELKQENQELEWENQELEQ
Nature of the assay: two-hybrid library CCNG1.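 Note: natural log of median RNA to DNA barcode read ratio; higher means stronger binding.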

In a further assay the target is T4, O4-bN.
T4 chain: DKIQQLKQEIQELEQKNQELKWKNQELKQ
Nature of the assay: two-hybrid library CCNG1.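 Note: natural log of median RNA to DNA barcode read ratio; higher means stronger binding.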

The target of a further assay is T5, O2-bN.
T5 chain: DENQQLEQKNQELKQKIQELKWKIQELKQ
Nature of the assay: two-hybrid library CCNG1.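 Note: natural log of median RNA to DNA barcode read ratio; higher means stronger binding.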

In another assay the target is T6, O9-bN.
T6 chain: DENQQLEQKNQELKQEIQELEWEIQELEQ
Nature of the assay: two-hybrid library CCNG1.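 Note: natural log of median RNA to DNA barcode read ratio; higher means stronger binding.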

The target in the next assay is T7, O5-bN.
T7 chain: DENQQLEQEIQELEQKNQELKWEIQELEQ
Nature of the assay: two-hybrid library CCNG1.

Another assay concerns the target T8, O8-bN.
T8 chain: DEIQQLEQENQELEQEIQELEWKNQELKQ
Nature of the assay: two-hybrid library CCNG1.

The target of the next assay is T9, O16-bN.
T9 chain: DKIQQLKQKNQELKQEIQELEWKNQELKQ
Nature of the assay: two-hybrid library CCNG1.

For the next assay, the target named is T10, O4-AA.
T10 chain: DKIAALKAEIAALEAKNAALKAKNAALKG
The assay can be described thus: two-hybrid library CCmax.

The target in a further assay is T11, O7-AA.
T11 chain: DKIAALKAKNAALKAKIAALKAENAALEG
Nature of the assay: two-hybrid library CCmax. The note with it: mean of both orientations.

Another assay addresses T12, P10-AA.
T12 chain: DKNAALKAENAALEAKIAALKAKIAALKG
Nature of the assay: two-hybrid library CCmax. The note with it: mean of both orientations.

The next assay deals with T13, O8-AA.
T13 chain: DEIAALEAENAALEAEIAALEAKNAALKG
The assay can be described thus: two-hybrid library CCmax. The settings on record: mean of both orientations.

The target in another assay is T14, P9-AA.
T14 chain: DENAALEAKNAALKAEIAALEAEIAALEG
Nature of the assay: two-hybrid library CCmax. The note with it: mean of both orientations.

Another assay has as its target T15, O5-AA.
T15 chain: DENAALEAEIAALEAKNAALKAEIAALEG
Nature of the assay: two-hybrid library CCmax. The settings on record: mean of both orientations.

The target of a further assay is T16, O6-AA.
T16 chain: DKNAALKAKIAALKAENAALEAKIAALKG
Nature of the assay: two-hybrid library CCmax. The settings on record: mean of both orientations.

The target of another assay is T17, P9bHq.
T17 chain: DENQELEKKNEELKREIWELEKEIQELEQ
The assay can be described thus: two-hybrid library CCNG1.

The target in another assay is T18, P7bHq.
T18 chain: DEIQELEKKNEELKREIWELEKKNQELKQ
The assay can be described thus: two-hybrid library CCNG1.

The next assay concerns the target T19, P8bHq.
T19 chain: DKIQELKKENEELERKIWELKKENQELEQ
Nature of the assay: two-hybrid library CCNG1.

The target in the next assay is T20, P9A-bS.
T20 chain: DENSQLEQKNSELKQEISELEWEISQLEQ
Nature of the assay: two-hybrid library CCNG1.

The target in the next assay is T21, P8A-bS.
T21 chain: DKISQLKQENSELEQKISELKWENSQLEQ
The assay can be described thus: two-hybrid library CCNG1.

The target in the next assay is T22, P8A-bH.
T22 chain: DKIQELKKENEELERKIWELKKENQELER
Nature of the assay: two-hybrid library CCNG1.

The target in another assay is T23, P9A-bH.
T23 chain: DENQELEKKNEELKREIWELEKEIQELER
Nature of the assay: two-hybrid library CCNG1.

A further assay concerns the target T24, P7A-bH.
T24 chain: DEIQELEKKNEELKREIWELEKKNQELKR
The assay can be described thus: two-hybrid library CCNG1.

Another assay concerns the target T25, P9mSN.
T25 chain: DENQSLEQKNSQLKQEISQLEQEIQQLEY
Nature of the assay: two-hybrid library CCNG1.

For the next assay, the target named is T26, P7mSN.
T26 chain: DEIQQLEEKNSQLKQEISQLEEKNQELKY
Nature of the assay: two-hybrid library CCNG1.

Another assay addresses T27, P8mSN.
T27 chain: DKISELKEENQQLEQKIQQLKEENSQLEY
Nature of the assay: two-hybrid library CCNG1.

Another assay addresses T28, 4H370-bN.
T28 chain: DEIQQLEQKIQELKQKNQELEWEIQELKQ
Nature of the assay: two-hybrid library CCNG1.

Another assay addresses T29, 4H687-bN.
T29 chain: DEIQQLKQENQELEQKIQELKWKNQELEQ
Nature of the assay: two-hybrid library CCNG1.

For a further assay, the target named is T30, 4H4001-bN.
T30 chain: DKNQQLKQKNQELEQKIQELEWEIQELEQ
Nature of the assay: two-hybrid library CCNG1.

A further assay concerns the target T31, 4H3606-bN.
T31 chain: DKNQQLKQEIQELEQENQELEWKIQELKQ
Nature of the assay: two-hybrid library CCNG1.

Another assay deals with T32, 4H797-bN.
T32 chain: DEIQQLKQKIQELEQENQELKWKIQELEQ
Nature of the assay: two-hybrid library CCNG1.

The next assay has as its target T33, 4H918-bN.
T33 chain: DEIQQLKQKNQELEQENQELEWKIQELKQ
Nature of the assay: two-hybrid library CCNG1.

The target in the next assay is T34, 4H967-bN.
T34 chain: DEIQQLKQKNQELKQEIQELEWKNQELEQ
Nature of the assay: two-hybrid library CCNG1.

For a further assay, the target named is T35, 4H3189-bN.
T35 chain: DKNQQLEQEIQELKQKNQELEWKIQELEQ
The assay can be described thus: two-hybrid library CCNG1.

Another assay addresses T36, 4H3843-bN.
T36 chain: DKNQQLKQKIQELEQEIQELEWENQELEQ
The assay can be described thus: two-hybrid library CCNG1.

Another assay addresses T37, 4H953-bN.
T37 chain: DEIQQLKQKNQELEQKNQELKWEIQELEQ
Nature of the assay: two-hybrid library CCNG1.

For a further assay, the target named is T38, 4H2697-bN.
T38 chain: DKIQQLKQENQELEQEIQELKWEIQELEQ
Nature of the assay: two-hybrid library CCNG1.

For the next assay, the target named is T39, 4H568-bN.
T39 chain: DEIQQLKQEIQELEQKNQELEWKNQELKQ
Nature of the assay: two-hybrid library CCNG1.

The next assay has as its target T40, 4H462-bN.
T40 chain: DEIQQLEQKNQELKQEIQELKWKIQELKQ
Nature of the assay: two-hybrid library CCNG1.

The target of the next assay is T41, 4H72-bN.
T41 chain: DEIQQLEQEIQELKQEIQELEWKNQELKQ
The assay can be described thus: two-hybrid library CCNG1.

The target of another assay is T42, 4H3782-bN.
T42 chain: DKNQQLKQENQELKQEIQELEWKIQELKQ
Nature of the assay: two-hybrid library CCNG1.

The target of another assay is T43, 4H883-bN.
T43 chain: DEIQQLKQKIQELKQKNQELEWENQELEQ
Nature of the assay: two-hybrid library CCNG1.

Another assay deals with T44, 4H607-bN.
T44 chain: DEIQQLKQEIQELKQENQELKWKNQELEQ
Nature of the assay: two-hybrid library CCNG1.

For the next assay, the target named is T45, 4H331-bN.
T45 chain: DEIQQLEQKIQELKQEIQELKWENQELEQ
Nature of the assay: two-hybrid library CCNG1.

For the molecule DKIQQLKQKNQELKQEIQELEWKNQELKQ [O16-bN], the interaction score was 0.821 with O6-bN; -0.333 with O7-bN; -0.113 with O3-bN; -0.0984 with O4-bN; -0.944 in the assay with O2-bN; -0.976 with O9-bN. In addition, the interaction score in the assay with O5-bN is -2.84; with O8-bN it was 0.95; with O16-bN, 0.145.
In the case of DKIAALKAEIAALEAKNAALKAKNAALKG [O4-AA], the interaction score is -1.05 in the assay with O4-AA; -1.28 in the assay with O7-AA; -0.869 in the assay with P10-AA; -0.637 with O8-AA; -1.16 in the assay with P9-AA; -0.641 in the assay with O5-AA. This molecule came in with an interaction score with O6-AA of -0.0762.
As for DEIQELEKKNEELKREIWELEKKNQELKQ [P7bHq], the figures for the interaction score with P9bHq, in the assay with P7bHq and in the assay with P8bHq were 0.211, -1.98 and 2.08, respectively.
Turning to DKISQLKQENSELEQKISELKWENSQLEQ [P8A-bS], the results for the interaction score with P9A-bS and with P8A-bS were -0.26 and -0.428, respectively.
For the molecule DEIQELEKKNEELKREIWELEKKNQELKR [P7A-bH], the interaction score with P8A-bH was 1.64; with P9A-bH it was -0.442; in the assay with P7A-bH it was -0.0377.
Take DEIQQLEEKNSQLKQEISQLEEKNQELKY [P7mSN]: the interaction score was -0.424 with P9mSN, -0.219 in the assay with P7mSN and 0.927 with P8mSN.
Consider DKIQQLKQENQELEQEIQELKWEIQELEQ [4H2697-bN], for which the interaction score is -0.695 in the assay with 4H370-bN; -1.12 in the assay with 4H687-bN; -0.819 with 4H4001-bN; -0.924 with 4H3606-bN; -0.83 in the assay with 4H797-bN; -1.97 with 4H918-bN. For the same molecule, the interaction score with 4H967-bN is -1.15; in the assay with 4H3189-bN, -1.43; in the assay with 4H3843-bN it was -0.916; with 4H953-bN, -0.808; with 4H2697-bN, -0.736; in the assay with 4H568-bN it was -1.07. Besides, the interaction score with 4H462-bN is 1.31; with 4H72-bN, -1.14; in the assay with 4H3782-bN, -1.03; with 4H883-bN it was -0.654; in the assay with 4H607-bN, -1.63; with 4H331-bN, -0.941.
Regarding DENQQLEQKNQELKQKIQELKWKIQELKQ [O2-bN], the interaction score was -1.5 in the assay with O6-bN; -0.634 with O7-bN; -1.2 with O3-bN; -1.97 in the assay with O4-bN; -0.646 with O2-bN; 0.719 in the assay with O9-bN. Besides, the interaction score with O5-bN is -0.76; in the assay with O8-bN, 0.817.
In the case of DKNQELKKEIEELERENWELEKKIQELKR [P6A-bH], the interaction score with P8A-bH was 0.924; in the assay with P9A-bH, 0.983; with P7A-bH, 1.35.
For DEIQQLEQKIQELKQENQELEWENQELEQ [O3-bN], the interaction score is -0.337 with O6-bN; -1.23 with O7-bN; -0.142 with O3-bN; 2.41 with O4-bN; -0.842 with O9-bN; -0.619 with O5-bN. This molecule also registered an interaction score in the assay with O8-bN of -0.285.
